This is an account of results in PMC7515630 (2020).

In this test the target is GST-LOV2GIVe (L) (Avena sativa | , UniProt O49003).

Broadly, the Kd is the concentration at which binding is half-saturated. A higher Kd goes with lower affinity.

B1: His-Gαi3 (rat) (natural protein)
chain: MGCTLSAEDKAAVERSKMIDRNLREDGEKAAKEVKLLLLGAGESGKSTIVKQMKIIHEDGYSEDECKQYKVVVYSNTIQSIIAIIRAMGRLKIDFGEAARADDARQLFVLAGSAEEGVMTSELAGVIKRLWRDGGVQACFSRSREYQLNDSASYYLNDLDRISQTNYIPTQQDVLRTRVKTTGIVETHFTFKELYFKMFDVGGQRSERKKWIHCFEGVTAIIFCVALSDYDLVLAEDEEMNRMHESMKLFDSICNNKWFTDTSIILFLNKKDLFEEKIKRSPLTICYPEYTGSNTYEEAAAYIQCQFEDLNRRKDTKEVYTHFTCATDTKNVQFVFDAVTDVIIKNNLKECGLY
The molecule B1 displayed a Kd of 270 nM.
